Experimental findings from paper PMC2677886 (Nucleic Acids Research, 2009) are described below.

For this assay, the target named is RECQ5–CBD fusion protein (human, UniProt O94762 1-991). In words: pull-down.
RECQ5–CBD fusion protein, sequence (O94762 whole entry, the tested form may be a part): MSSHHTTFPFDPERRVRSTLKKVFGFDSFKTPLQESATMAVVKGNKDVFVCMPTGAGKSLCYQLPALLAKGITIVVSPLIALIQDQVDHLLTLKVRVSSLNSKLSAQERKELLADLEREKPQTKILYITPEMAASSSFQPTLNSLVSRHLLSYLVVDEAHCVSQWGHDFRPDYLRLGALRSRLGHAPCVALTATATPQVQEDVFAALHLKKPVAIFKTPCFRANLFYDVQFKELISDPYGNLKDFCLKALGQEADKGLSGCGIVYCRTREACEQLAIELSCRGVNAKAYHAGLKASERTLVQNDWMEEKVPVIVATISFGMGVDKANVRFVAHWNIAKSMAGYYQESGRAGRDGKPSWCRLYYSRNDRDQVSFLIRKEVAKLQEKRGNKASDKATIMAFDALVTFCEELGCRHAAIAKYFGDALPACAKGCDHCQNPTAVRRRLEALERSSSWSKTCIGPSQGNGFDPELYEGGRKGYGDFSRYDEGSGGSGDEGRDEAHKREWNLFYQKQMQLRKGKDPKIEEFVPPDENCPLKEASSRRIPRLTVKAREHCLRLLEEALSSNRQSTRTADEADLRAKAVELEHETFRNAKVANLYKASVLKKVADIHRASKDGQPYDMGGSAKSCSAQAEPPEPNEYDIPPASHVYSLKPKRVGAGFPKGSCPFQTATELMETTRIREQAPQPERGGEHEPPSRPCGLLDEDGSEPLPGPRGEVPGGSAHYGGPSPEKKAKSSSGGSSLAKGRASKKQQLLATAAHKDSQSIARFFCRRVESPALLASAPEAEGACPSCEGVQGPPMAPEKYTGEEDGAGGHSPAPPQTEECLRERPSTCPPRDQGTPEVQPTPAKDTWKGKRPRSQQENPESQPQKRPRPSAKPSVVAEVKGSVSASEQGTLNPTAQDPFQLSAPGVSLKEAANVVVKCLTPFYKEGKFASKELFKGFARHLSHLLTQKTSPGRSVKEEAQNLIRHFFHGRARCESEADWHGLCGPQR

B1: (His)6-MRE11, individually purified (natural protein, human, UniProt P49959 1-708, looked up)
chain: MSTADALDDENTFKILVATDIHLGFMEKDAVRGNDTFVTLDEILRLAQENEVDFILLGGDLFHENKPSRKTLHTCLELLRKYCMGDRPVQFEILSDQSVNFGFSKFPWVNYQDGNLNISIPVFSIHGNHDDPTGADALCALDILSCAGFVNHFGRSMSVEKIDISPVLLQKGSTKIALYGLGSIPDERLYRMFVNKKVTMLRPKEDENSWFNLFVIHQNRSKHGSTNFIPEQFLDDFIDLVIWGHEHECKIAPTKNEQQLFYISQPGSSVVTSLSPGEAVKKHVGLLRIKGRKMNMHKIPLHTVRQFFMEDIVLANHPDIFNPDNPKVTQAIQSFCLEKIEEMLENAERERLGNSHQPEKPLVRLRVDYSGGFEPFSVLRFSQKFVDRVANPKDIIHFFRHREQKEKTGEEINFGKLITKPSEGTTLRVEDLVKQYFQTAEKNVQLSLLTERGMGEAVQEFVDKEEKDAIEELVKYQLEKTQRFLKERHIDALEDKIDEEVRRFRETRQKNTNEEDDEVREAMTRARALRSQSEESASAFSADDLMSIDLAEQMANDSDDSISAATNKGRGRGRGRRGGRGQNSASRGGSQRGRADTGLETSTRSRNSKTAVSASRNMSIIDAFKSTRQQPSRNVTTKNYSEVIEVDESDVEEDIFPTTSKTDQRWSSTSSSKIMSQSQVSKGVDFESSEDDDDDPFMNTSSLRRNRR
On to B1, for which the binding result was “binds”.

B2: (His)6-NBS1, individually purified (natural protein, human, UniProt O60934 1-754, looked up)
chain: MWKLLPAAGPAGGEPYRLLTGVEYVVGRKNCAILIENDQSISRNHAVLTANFSVTNLSQTDEIPVLTLKDNSKYGTFVNEEKMQNGFSRTLKSGDGITFGVFGSKFRIEYEPLVACSSCLDVSGKTALNQAILQLGGFTVNNWTEECTHLVMVSVKVTIKTICALICGRPIVKPEYFTEFLKAVESKKQPPQIESFYPPLDEPSIGSKNVDLSGRQERKQIFKGKTFIFLNAKQHKKLSSAVVFGGGEARLITEENEEEHNFFLAPGTCVVDTGITNSQTLIPDCQKKWIQSIMDMLQRQGLRPIPEAEIGLAVIFMTTKNYCDPQGHPSTGLKTTTPGPSLSQGVSVDEKLMPSAPVNTTTYVADTESEQADTWDLSERPKEIKVSKMEQKFRMLSQDAPTVKESCKTSSNNNSMVSNTLAKMRIPNYQLSPTKLPSINKSKDRASQQQQTNSIRNYFQPSTKKRERDEENQEMSSCKSARIETSCSLLEQTQPATPSLWKNKEQHLSENEPVDTNSDNNLFTDTDLKSIVKNSASKSHAAEKLRSNKKREMDDVAIEDEVLEQLFKDTKPELEIDVKVQKQEEDVNVRKRPRMDIETNDTFSDEAVPESSKISQENEIGKKRELKEDSLWSAKEISNNDKLQDDSEMLPKKLLLTEFRSLVIKNSTSRNPSGINDDYGQLKNFKKFKKVTYPGAGKLPHIIGGSDLIAHHARKNTELEEWLRQEMEVQNQHAKEESLADDLFRYNPYLKRRR
Regarding B2, the binding result was “binds”.
